Laboratory results as given in US20140093514A1 (UNIVERSITY OF ZURICH, published 2014).

Columns and labels:
MAGEA3 peptide No 24 = target: T1, MAGEA3 peptide No 24; test: ELISA on plates coated with overlapping 20mer MAGEA3 peptides; antibody at 1 µg/ml; HRP goat anti-human IgG Fc-gamma
T1 construct: member of the group m18; also called 20mer peptide, amino acids 231-250 of MAGEA3
T1 peptide: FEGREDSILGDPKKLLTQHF
Experimental: (§1) 20mer peptides spanning the entire MAGEA3 protein with 10 aa overlaps shared by each adjacent peptide (Peptides&Elephants, Nuthetal, Germany) were used to coat Maxisorp ELISA plates (Nunc, Rochester, N.Y.). As control a 20mer peptide representing amino acids 40-21 from the NY-ESO-1 protein was used (rev). The numbering of amino acids of MAGEA3 is based on SEQ ID No.: 101.
(§2) Human recombinant antibody was used at a concentration of 1 μg/ml with the exception of antibody 9A5 which was used at […]. Bound human antibody was detected using horseradish peroxidase-conjugated goat anti-human IgG Fc-gamma specific antibodies (Jackson ImmunoResearch, Europe Ltd., Cambridgeshire, UK).

MAGEA3 peptide No 8 = target: T2, MAGEA3 peptide No 8; test: as above
T2 construct: member of the group m18; also called 20mer peptide, amino acids 71-90 of MAGEA3
T2 peptide: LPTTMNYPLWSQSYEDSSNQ
Experimental: as §1, §2

MAGEA3 peptide No 7 = target: T3, MAGEA3 peptide No 7; test: as above
T3 construct: member of the group m18; also called 20mer peptide, amino acids 61-80 of MAGEA3
T3 peptide: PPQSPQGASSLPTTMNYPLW
Experimental: as §1, §2

recombinant MAGEA4 = target: T4, recombinant MAGEA4 (UniProt P43358 1-317, limits assumed); test: ELISA on coated recombinant MAGEA proteins, serial dilutions of antibody (concentrations not printed on the sheet)
T4 construct: also called CT1.4
T4 sequence (looked up): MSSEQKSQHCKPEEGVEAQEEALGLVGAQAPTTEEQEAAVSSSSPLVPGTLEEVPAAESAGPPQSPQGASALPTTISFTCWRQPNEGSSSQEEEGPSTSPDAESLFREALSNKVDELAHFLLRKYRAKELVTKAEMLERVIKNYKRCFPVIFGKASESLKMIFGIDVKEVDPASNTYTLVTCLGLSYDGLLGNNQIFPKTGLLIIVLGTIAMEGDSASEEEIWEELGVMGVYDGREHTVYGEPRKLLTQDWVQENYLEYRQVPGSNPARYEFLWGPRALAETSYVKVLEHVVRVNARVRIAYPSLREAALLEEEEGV
Experimental: (§3) Recombinantly expressed MAGEA3, MAGEA1, MAGEA4, MAGEA10 were coated on ELISA plates and binding of MAGEA3 antibodies 21B4, 94G11, 2G4, 9A5 and 54B4 to these proteins was tested. The results are depicted in FIG. 3B).

recombinant MAGEA10 = target: T5, recombinant MAGEA10 (UniProt P43363 1-369, limits assumed); test: as above
T5 construct: also called CT1.10
Experimental: as §3

recombinant MAGEA1 = target: T6, recombinant MAGEA1 (UniProt P43355 1-309, limits assumed); test: as above
T6 construct: also called CT1.1
T6 sequence (looked up): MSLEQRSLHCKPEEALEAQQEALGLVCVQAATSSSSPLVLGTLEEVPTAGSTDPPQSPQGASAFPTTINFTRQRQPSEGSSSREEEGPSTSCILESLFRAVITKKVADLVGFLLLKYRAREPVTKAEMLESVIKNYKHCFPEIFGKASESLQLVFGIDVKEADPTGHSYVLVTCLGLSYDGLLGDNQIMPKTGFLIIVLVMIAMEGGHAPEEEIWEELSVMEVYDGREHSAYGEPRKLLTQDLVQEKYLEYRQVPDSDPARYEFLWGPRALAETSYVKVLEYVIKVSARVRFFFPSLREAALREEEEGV
Experimental: as §3

[1] = target: T7, recombinant MAGEA3 protein (human, UniProt P43357 1-314); test: ELISA, recombinant MAGEA3 coated to plastic, serial dilutions of antibody, OD 450 nm
T7 construct: In Experiment 4C MAGEA3 was also expressed in transiently transfected HEK293T cells (fixed and permeabilized); also called His-tagged MAGEA3; CT1.3
Experimental: FIG. 4 EC50 determination of recombinant human monoclonal antibodies to MAGEA3. MAGEA3-ELISA was carried out using recombinant MAGEA3 coated to plastic and serial dilutions of the human monoclonal antibodies 21B4, 54B4, 94G11, 9A5, 31H10, 43B10, 2G4, 20C10, 26C9 and 4D6 (A-J). EC50 values are indicated in each figure.
The EC₅₀, the concentration at which half-maximal binding of the antibody to its antigen is observed was determined in MAGEA3 ELISA using serial dilutions of the human monoclonal antibodies 21B4, 54B4, 94G11, 9A5, 31H10, 43B10, 2G4, 20C10, 26C9 and 4D6. EC50 values were determined mathematically by derivation of the best-fit line using GraphPad software.

MAGEA6 = target: T8, MAGEA6 (UniProt P43360 1-314, limits assumed); test: flow cytometry on fixed, permeabilized HEK293T cells transiently transfected with MAGEA6; PE-labeled anti-human antibody
T8 construct: whole, on cells; Intracellular antigen: the transfected cells were fixed and permeabilized before staining; also called CT1.6
Experimental: HEK293T cells transiently transfected with MAGEA3 or MAGE A6 were fixed and permeabilized and incubated with human-derived antibodies. Binding of human-derived antibodies to the cells was detected by flow cytometry using PE-labeled anti-human antibodies. […] Filled histograms show binding of 21B4, 31H10, 94G11 and 54B4 to transiently transfected HEK 293 cells. Only a proportion of the cells was transfected resulting in a population expressing the transgene and in a population not expressing the transgene. […] The results are depicted in FIG. 3C).

T5 sequence (P43363 whole entry): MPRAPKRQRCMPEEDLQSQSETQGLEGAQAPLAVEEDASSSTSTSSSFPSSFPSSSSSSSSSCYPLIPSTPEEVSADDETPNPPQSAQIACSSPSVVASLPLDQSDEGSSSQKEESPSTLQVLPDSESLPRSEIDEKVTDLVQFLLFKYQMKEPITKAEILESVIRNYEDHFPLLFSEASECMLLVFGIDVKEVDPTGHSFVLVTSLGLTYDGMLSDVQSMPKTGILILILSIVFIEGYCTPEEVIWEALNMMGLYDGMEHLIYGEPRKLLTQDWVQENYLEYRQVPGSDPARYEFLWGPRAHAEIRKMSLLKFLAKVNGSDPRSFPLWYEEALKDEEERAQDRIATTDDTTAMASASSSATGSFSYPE
T7 sequence (P43357 whole entry): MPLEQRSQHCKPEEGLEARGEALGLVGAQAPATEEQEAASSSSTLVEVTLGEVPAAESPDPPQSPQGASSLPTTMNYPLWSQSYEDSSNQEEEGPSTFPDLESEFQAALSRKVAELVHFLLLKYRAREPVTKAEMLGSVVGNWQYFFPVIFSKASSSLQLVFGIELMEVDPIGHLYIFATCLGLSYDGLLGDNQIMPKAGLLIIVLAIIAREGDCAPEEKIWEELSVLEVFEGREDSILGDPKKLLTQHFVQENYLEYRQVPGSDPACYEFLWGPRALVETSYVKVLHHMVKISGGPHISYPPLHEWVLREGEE
T8 sequence (P43360 whole entry): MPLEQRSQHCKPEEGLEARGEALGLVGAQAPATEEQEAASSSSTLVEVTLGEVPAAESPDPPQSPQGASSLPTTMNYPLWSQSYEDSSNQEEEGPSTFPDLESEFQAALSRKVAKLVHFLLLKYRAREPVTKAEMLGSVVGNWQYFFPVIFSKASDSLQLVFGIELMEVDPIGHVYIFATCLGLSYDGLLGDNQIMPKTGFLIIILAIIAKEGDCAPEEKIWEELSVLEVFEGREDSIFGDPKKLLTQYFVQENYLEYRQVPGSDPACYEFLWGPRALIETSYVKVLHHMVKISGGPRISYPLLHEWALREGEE

B1: 21B4 (antibody, V domains shown)
VH: QVQLVESGGGVVQPGRSLRLSCTASGFRFRSHGMHWVRQAPGKGLEWVAVISYDGNNKLYADSVKGRITISRDNSKNTLFLQMNNVRAEDTAVYYCASPYTSDWQYFQYWGQGTLVIVSS
VL: EIVMTQSPATLSVSPGERATFSCRASQNISTTLAWYQQKPGQAPRLLIYDTSTRATGIPARFSGSGSGTEFTLTISSLQSEDLAVYYCQQSNSWPLTFGGGTKVEIK
notes: Patient-derived; also called human-derived recombinant antibody 21B4; human monoclonal antibody 21B4
binding result (MAGEA3 peptide No 24): binds
binding result (MAGEA3 peptide No 8): binds
binding result (MAGEA3 peptide No 7): binds
binding result (recombinant MAGEA4): no binding
binding result (recombinant MAGEA10): no binding
binding result (recombinant MAGEA1): no binding
EC50 [1]: 0.0313 nM
binding result (MAGEA6): binds
